Assay results published in publication PMC3176292, “Mutations in Protein-Binding Hot-Spots on the Hub Protein Smad3 Differentially Affect Its Protein Interactions and Smad3-Regulated Gene Expression” (PLoS ONE, 2011).
Where a chain is given by its changes, count along the chain named. Names and notes keep the numbering of the source.

T1: SARA Smad-binding domain (amino acids 665–721) on the 3xFlag-thioredoxin scaffold (UniProt O95405 767-823)
T1 construct: SARA, amino acids 665–721; cloned into the unique RsrII site of pCI-3xFLAG-Trx; also called SARA aa665–721; TrxSARA; source: HEK-293, transfected, in lysate
T1 sequence (looked up): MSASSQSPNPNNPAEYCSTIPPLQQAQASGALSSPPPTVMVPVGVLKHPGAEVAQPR

T2: Ski Smad-binding domain (amino acids 2–56) on the 3xFlag-thioredoxin scaffold (UniProt P12755 2-56)
T2 construct: Ski, amino acids 2–56; cloned into the unique RsrII site of pCI-3xFLAG-Trx; also called Ski aa2–56; TrxSki; source: HEK-293, transfected, in lysate
T2 sequence (looked up): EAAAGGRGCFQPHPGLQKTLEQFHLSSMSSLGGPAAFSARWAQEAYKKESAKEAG

T3: Flag-SkiW274E, full length (UniProt P12755 1-728, W274E)
T3 construct: plasmid pCMV5b-Flag-SkiW274E (from K. Luo); also called SkiW274E FL; SKI274E; source: HEK-293, transfected, in lysate
T3 sequence (looked up): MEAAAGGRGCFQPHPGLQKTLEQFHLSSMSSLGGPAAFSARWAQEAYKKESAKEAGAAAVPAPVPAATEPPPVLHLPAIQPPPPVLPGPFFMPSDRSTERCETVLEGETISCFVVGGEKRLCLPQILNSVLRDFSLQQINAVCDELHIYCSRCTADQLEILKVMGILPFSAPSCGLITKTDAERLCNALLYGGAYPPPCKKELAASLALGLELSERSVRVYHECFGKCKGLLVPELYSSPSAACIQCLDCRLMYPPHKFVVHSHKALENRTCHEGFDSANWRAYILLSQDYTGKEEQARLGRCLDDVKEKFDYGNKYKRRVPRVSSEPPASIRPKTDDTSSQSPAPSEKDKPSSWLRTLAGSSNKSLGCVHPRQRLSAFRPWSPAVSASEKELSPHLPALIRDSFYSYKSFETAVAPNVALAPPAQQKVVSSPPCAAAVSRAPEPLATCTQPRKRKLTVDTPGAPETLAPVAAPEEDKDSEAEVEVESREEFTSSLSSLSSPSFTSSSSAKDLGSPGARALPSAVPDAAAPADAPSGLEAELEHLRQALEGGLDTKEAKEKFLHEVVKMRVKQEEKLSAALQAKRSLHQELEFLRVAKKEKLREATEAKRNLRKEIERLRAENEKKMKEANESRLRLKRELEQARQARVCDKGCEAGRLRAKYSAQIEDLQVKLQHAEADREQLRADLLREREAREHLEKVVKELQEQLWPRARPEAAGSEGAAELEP

T4: SIP1 Smad-binding domain (amino acids 315–487) on the 3xFlag-thioredoxin scaffold (UniProt Q9R0G7 315-487)
T4 construct: SIP1, amino acids 315–487; amplified from pACT2-SIP1-315-487 (from D. Huylebroeck), which I recall as a mouse clone; cloned into the RsrII site of pCI-3xFLAG-Trx; also called Sip1 315–487; TrxSIP1; source: HEK-293, transfected, in lysate
T4 sequence (looked up): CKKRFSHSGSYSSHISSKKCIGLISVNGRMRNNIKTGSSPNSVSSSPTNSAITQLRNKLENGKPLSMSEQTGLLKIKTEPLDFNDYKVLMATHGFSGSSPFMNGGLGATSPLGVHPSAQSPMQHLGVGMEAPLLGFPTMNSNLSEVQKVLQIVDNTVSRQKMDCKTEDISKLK

B1: Renilla luciferase-Smad3 D408H (natural protein, UniProt P84022 1-425, looked up)
chain: MSSILPFTPPIVKRLLGWKKGEQNGQEEKWCEKAVKSLVKKLKKTGQLDELEKAITTQNVNTKCITIPRSLDGRLQVSHRKGLPHVIYCRLWRWPDLHSHHELRAMELCEFAFNMKKDEVCVNPYHYQRVETPVLPPVLVPRHTEIPAEFPPLDDYSHSIPENTNFPAGIEPQSNIPETPPPGYLSEDGETSDHQMNHSMDAGSPNLSPNPMSPAHNNLDLQPVTYCEPAFWCSISYYELNQRVGETFHASQPSMTVDGFTDPSNSERFCLGLLSNVNRNAAVELTRRHIGRGVRLYYIGGEVFAECLSDSAIFVQSPNCNQRYGWHPATVCKIPPGCNLKIFNNQEFAALLAQSVNQGFEAVYQLTRMCTIRMSFVKGWGAEYRRQTVTSTPCWIELHLNGPLQWLHKVLTQMGSPSIRCSSVS
notes: Smad3; source: HEK-293, transfected together with constitutively active Alk5, in lysate
B2: Renilla luciferase-Smad3 R243A (natural protein, UniProt P84022 1-425, looked up)
chain: B1 chain with R243A, H408D
notes: as for B1
B3: Renilla luciferase-Smad3 C338A (natural protein, UniProt P84022 1-425, looked up)
chain: B1 chain with C338A, H408D
notes: as for B1
B4: Renilla luciferase-Smad3 V356R (natural protein, UniProt P84022 1-425, looked up)
chain: B1 chain with V356R, H408D
notes: as for B1
B5: Renilla luciferase-Smad3 Y226A (natural protein, UniProt P84022 1-425, looked up)
chain: B1 chain with Y226A, H408D
notes: as for B1
B6: Renilla luciferase-Smad3 Q322A/Y324A (natural protein, UniProt P84022 1-425, looked up)
chain: B1 chain with Q322A, Y324A, H408D
notes: as for B1
B7: Renilla luciferase-Smad3 W406A (natural protein, UniProt P84022 1-425, looked up)
chain: B1 chain with W406A, H408D
notes: as for B1
B8: Renilla luciferase-Smad3 K341A (natural protein, UniProt P84022 1-425, looked up)
chain: B1 chain with K341A, H408D
notes: as for B1
B9: Renilla luciferase-Smad3 L340A (natural protein, UniProt P84022 1-425, looked up)
chain: B1 chain with L340A, H408D
notes: as for B1
B10: Renilla luciferase-Smad3 S254A (natural protein, UniProt P84022 1-425, looked up)
chain: B1 chain with S254A, H408D
notes: as for B1
B11: Renilla luciferase-Smad3 W326A (natural protein, UniProt P84022 1-425, looked up)
chain: B1 chain with W326A, H408D
notes: as for B1
B12: Renilla luciferase-Smad3 V224A (natural protein, UniProt P84022 1-425, looked up)
chain: B1 chain with V224A, H408D
notes: as for B1
B13: Renilla luciferase-Smad3 P335A/P336A (natural protein, UniProt P84022 1-425, looked up)
chain: B1 chain with P335A, P336A, H408D
notes: as for B1
B14: Renilla luciferase-Smad3 E267A (natural protein, UniProt P84022 1-425, looked up)
chain: B1 chain with E267A, H408D
notes: as for B1
B15: Renilla luciferase-Smad3 Y297A (natural protein, UniProt P84022 1-425, looked up)
chain: B1 chain with Y297A, H408D
notes: as for B1
B16: Renilla luciferase-Smad3 Y298A (natural protein, UniProt P84022 1-425, looked up)
chain: B1 chain with Y298A, H408D
notes: as for B1

These binders were tested against T5, Flag-Smad3, full length (UniProt P84022 1-425) (assay: co-IP; LUMIER: Renilla luciferase-Smad3 and Flag-tagged partner co-expressed with constitutively active Alk5 in HEK-293; Flag protein captured from cleared lysate (TNE: 10 mM Tris-HCl pH 7.8, 150 mM NaCl, 1 mM EDTA, 1% Igepal CA-630) on anti-Flag 96-well plates, 2 h at 4 °C; co-precipitated Renilla luciferase activity, TrxGA background subtracted, percent of wild-type Smad3). Conditions: partners not purified.
T5 construct: Smad3; plasmid pCMV5-Flag-Smad3 (from J. Massagué); bait for Smad3-Smad3 association; also called Smad3 FL; source: HEK-293, transfected together with constitutively active Alk5, in lysate

| percent binding relative to wild-type Smad3 [%] | Binder |
| --- | --- |
| 30 | B1 |
| 46 | B2 |

Molecular target: T5, Flag-Smad3, full length
Assay: as above
Conditions: partners not purified
Remark: another data set of the same source

| percent binding relative to wild-type Smad3 [%] | Binder |
| --- | --- |
| 100 | B3 |
| 275 | B4 |
| 161 | B5 |
| 143 | B6 |
| 564 | B7 |
| 95 | B8 |
| 99 | B9 |
| 105 | B10 |
| 159 | B11 |
| 118 | B12 |
| 109 | B13 |
| 222 | B14 |
| 82 | B15 |
| 113 | B16 |

Each binder was assayed against T1, SARA Smad-binding domain (amino acids …) in the same assay as above. Conditions: partners not purified.

| percent binding relative to wild-type Smad3 [%] | Binder |
| --- | --- |
| 94 | B3 |
| 1 | B4 |
| 3 | B5 |
| 3 | B6 |
| 1 | B7 |
| 4 | B8 |
| 12 | B9 |
| 103 | B10 |
| 4 | B11 |
| 21 | B12 |
| 2 | B13 |
| 81 | B14 |
| 73 | B16 |

What follows are binders tested against T2, Ski Smad-binding domain (amino acids …) in the same assay as above. Conditions: partners not purified.

| percent binding relative to wild-type Smad3 [%] | Binder |
| --- | --- |
| 188 | B3 |
| 2 | B4 |
| 32 | B5 |
| 237 | B6 |
| 5 | B7 |
| 27 | B8 |
| 194 | B9 |
| 10 | B10 |
| 292 | B11 |
| 524 | B12 |
| 356 | B13 |
| 1150 | B14 |
| 271 | B16 |

What follows are binders tested against T3, Flag-SkiW274E, full length in the same assay as above. Conditions: partners not purified.

| percent binding relative to wild-type Smad3 [%] | Binder |
| --- | --- |
| 111 | B3 |
| 30 | B4 |
| 89 | B5 |
| 100 | B6 |
| 21 | B7 |
| 55 | B8 |
| 57 | B9 |
| 78 | B10 |
| 88 | B11 |
| 212 | B12 |
| 118 | B13 |
| 137 | B14 |
| 29 | B15 |
| 121 | B16 |

What follows are binders tested against T4, SIP1 Smad-binding domain (amino acids …) in the same assay as above. Conditions: partners not purified.

| percent binding relative to wild-type Smad3 [%] | Binder |
| --- | --- |
| 44 | B3 |
| 7 | B4 |
| 7 | B5 |
| 162 | B6 |
| 15 | B7 |
| 66 | B8 |
| 159 | B9 |
| 128 | B10 |
| 319 | B11 |
| 339 | B12 |
| 123 | B13 |
| 88 | B14 |
| 80 | B15 |
| 33 | B16 |
